test: yeast display, Sf9 membrane polyspecificity reagent, FACS + sequencing; frameworks hold sequencing errors
Procedure, shortened: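 Galactose induction of a Saccharomyces cerevisiae BJ5465 synthetic nanobody display library ran 36–48 hours. The cells were then stained for 1 hour at 4 °C with 10% biotinylated, detergent-solubilized Sf9 membrane reagent, pulled down on streptavidin microbeads and FACS-sorted into low and high (top ~1%) gates on expression and reagent-binding fluorescence. Labels for polyreactivity follow the gate of origin.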

Row | Sequence | polyreactivity (PSR sort gate)
1 | QVQLVESGGGLVQAGGSLRLSCAASGFTFNANAMGWYRQAPGKERELVAFITRSGGRTYYADSVKGRFTISRDNAKNTVYLQMNSLKPEDTAVYYCAKEGPSRVYQGTDSASDYWGQGTQVTVSS | high polyreactivity
2 | QVQLVESGGGLVQAGGSLRLSCAASGFTFNRNAMGWYIQAPGKERELVAAISWSGGSTYYADSVKGRFTISRDNAKNTVYLQMNSLKPQDTEVYYCAKGYRRVYGPFYFWGQGTQVTVSS | low polyreactivity
3 | QVQLVESGGGLVQAGGSLRLSCAASGFTFNRYAMAWDRQAPGKERELVATITSGGNTYYADSVKGRFTIARDNAKNTVYLQMNSLKPEDTAVYYCNQLGWYSVYRRDYWGQGTQVTVSS | high polyreactivity
4 | QVQLVESGGGLVQAGGSLRLSCAASGFTFNRYAMGWYIEAPGKERELVASITTGGRTNYADSVKGRFTISRDNAKNTVYLQMNSLKPVDTAVYYCAADYCYFYRYYYWGQGTQVTVSS | high polyreactivity
5 | QVQLVESGGGLVQAGGSLRLSCAASGFTFNRYAMGWYRPAPGKERELVAAISRSTATTYYADSVKGRFTISRDNAMNTVYLQMNSLKPEDTAVFYCNSPQRYWPPYGYWGQGTQVTVSS | high polyreactivity
6 | QVQLVESGGGLVQAGGSLRLSCAASGFTFNRYAMGWYRQAPGKERELVAAISWSGTSTYYADSVKGRFTISRDNAKNTVYLQMNSLKPEDPAVYYCAAYPALTGGLPKSRGYYWGQGTQVTVSS | high polyreactivity
7 | QVQLVESGGGLVQAGGSLRLSCAASGFTFNRYAMGWYRQAPGKERELVARITRGGSTKYADSVKGRFTISRDNAKNTVYLQMNSLKPEDTAVYYCAADYGGFLGYDYWGQGTQVTVSS | high polyreactivity
8 | QVQLVESGGGLVQAGGSLRLSCAASGFTFNRYAMGWYRQAPGKERELVATITSGGNTYYADSVKGRFTISRDNAKNTVYLQMNSLKPEDTAVYYCNKRGWYSVYRRDYWGQGTQVTVSS | high polyreactivity
9 | QVQLVESGGGLVQAGGSLRLSCAASGFTFNRYVMGWYRQAPGKERELVAAIDSGDSTYYADSVKGRFTISRDNAKNTVYLQMNSLKPEDTAVFYCAAEFKSKFFSDIFDNDYDYWGQGTQVSVSS | high polyreactivity
10 | QVQLVESGGGLVQAGGSLRLSCAASGFTFNSYDMYWVRQAPGKGLEWVSSINTNGGSTYYADSVKGRFTISRDNAKNTVYLQMNSLKPEDTAVYYCAADGDTVGHSYRYDYWGQGTQVTVSS | low polyreactivity
11 | QVQLVESGGGLVQAGGSLRLSCAASGFTFNYNTMGWYRQAPGKERELVARISRSGGRTYYADSVKGRFTISRDNAKNTVYLQMNSLKPEDTAVYYCNTDYYGVRHRYDYWGQGTQVTVSS | high polyreactivity
12 | QVQLVESGGGLVQAGGSLRLSCAASGFTFNYYAMGSYRQAPGKERELVAAITWRSGRTSYADSVKGRFTISRDNAKNTVYLQMNSLKPEDTAVYYCAKYPIYSGLTRYGYWGQGTQVTVSS | high polyreactivity
13 | QVQLVESGGGLVQAGGSLRLSCAASGFTFNYYAMGWYRQAPGKERELVAAISRSGGNTYYADSVKGRFTISRDNAKNTVYLQMNSLKPEDTAVYYCAAYLRSYVRYYYWGQGTQVTVSS | high polyreactivity
14 | QVQLVESGGGLVQAGGSLRLSCAASGFTFNYYPMGWYRQAPGKERELVAAIDSGGNTYYADSVKGRFTISRDNAKNTVYLQMNSLKPEDTAVYYCAAYRDYQYDFWGQGTQVTVSS | low polyreactivity
15 | QVQLVESGGGLVQAGGSLRLSCAASGFTFPDYAMGWYRQAPGKERELVAAISSDGSTYYADSVKGPFTISRDNAKNTVYLQMNSLKPEDTAVYYCAAYVVWLYGDDYWGQGTQVTVSS | low polyreactivity
16 | QVQLVESGGGLVQAGGSLRLSCAASGFTFPEYSMGWYRQAPGKERELVAAITRRGTTTYYADSVKGRFTISRYTAKNTVYLQMNILKPEDTAVYYCAALAWSAYDYWGQGTQVTVSS | high polyreactivity
17 | QVQLVESGGGLVQAGGSLRLSCAASGFTFPFYTMGWYRQAPGKERELVAAISRSGASTFYADSVKGRFTISRDNAKNTGYLQMNSLKPEDTAVYYCAGRRGYAPYEYWGQGTQVTVSS | high polyreactivity
